± gives the half width of the 95% confidence interval.
Assay: folding stability dG unfold from chymotrypsin proteolysis; higher = more stable
How it was run: (§1)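 K50 was inferred by Bayesian fitting of sequencing counts obtained after protease digestion of designed mini-proteins. Unfolding free energy was derived by comparison with a sequence-predicted unfolded-state K50 and a shared folded-state K50, for each protease or both combined. The mini-proteins were under 80 residues, had no cysteine, were carried in a PA-tagged cDNA display construct, and were kept only if AlphaFold2 dimer inter-PAE exceeded 15.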

Point of comparison: “SAGGMITLTTKTELIGSYRVTYSVTVDPVDDSVVTSTHVTVTPLPPPPPPLPPVPPENPVLPSPRLESAGGS [r8_234_JUSTAS]”, “folding stability dG unfold” value 0.56 ± 0.42 kcal/mol. Against it:
- SAGEKEFEIVEVKVNKETNEVYFLVRDKEKNRLIKVHSNGTVEIYDLKDPGKKITINMSLEELLALLKKSAG [r5_491_TrROS_Hall] — higher, 4.26 ± 0.19 kcal/mol
- SAGGPPNYRIKIEYYPPNGMITVELPFDSPDELLDEIRELPGLPVEPDNDGTIIIMFPNHMIKIDIWKSAGG [r13_143_TrROS] — higher, 2.72 ± 0.056 kcal/mol
- SAGPEKVREAARELFEKLNLPIVSEEAIEVGDAVLIRFEIPEIGTKITILAPVFENGEIKVIVKIEPVSSAG [r5_888_TrMRF] — higher, 1.58 ± 0.032 kcal/mol
- SAGGEMVEIVVKFKTKEELEAAIRAALPPGATVEVTVEEKDGELYLTITVPKENAERLREALKKALESAGGS [r16_43_TrROS_Hall] — higher, 4.48 ± 0.13 kcal/mol
- SAGSPVVIKVSKVDSSGNWTLLEEIPIPPSEVSGVELVGDSLKILPPGSGGSYTFTIENSTVTVSIEESAGG [r19_408_JUSTAS] — higher, 1.27 ± 0.084 kcal/mol
- SAKKLIIKVEVETFDEETGELKTEERTIEADTLEDALAEIERELPPGARVRIEVFDADGKLVETIEIELSAG [r14_234_TrROS_Hall] — higher, 3.1 ± 0.091 kcal/mol
- SMKEVEKREFPDGTTVTFSKSSSPVITIKVTTYSPVPNTSELSSSESTYTFPLPPGKPLTLEEVLKKVLESA [r9_614_JUSTAS] — higher, 1.38 ± 0.21 kcal/mol
- SAGGMIRVEDTSTSVSIDIEITPLPNGQYKATITTTTTSAKLLPNGTPVTTTTPTTSTVTITPDVPLLSAGG [r13_561_JUSTAS] — within error, 0.681 ± 0.15 kcal/mol
- SAMKKLTEEEIEKLAKELAKEGKVEIKIKVEKKVVKNKNGKKKEVTKVKIEIKAPPEAKKKLEKLKKKLSAG [r14_628_TrROS_Hall] — within error, 0.992 ± 0.19 kcal/mol
- SAGGSAGGSPYTIMYPIPGDTVEEVKDIAKEIMEHFPNFKITVSVEPPKDGQYWVTIELEMPDSAGGSAGGS [r12_425_TrROS] — higher, 2.23 ± 0.049 kcal/mol

Assay: folding stability dG unfold (combined trypsin and chymotrypsin); higher = more stable
How it was run: as §1

Point of comparison: “SAGMTVTVTLNYPTPGGPVTVRVLRGDEEEVVTVPPTETLTITVTLDPDSGATIEVFFPDGSSKTYPLGSAG [r5_187_JUSTAS]”, “folding stability dG unfold” value 3.35 ± 0.18 kcal/mol. Against it:
- SAGGSAGGSLTIRFPEELSPEEAVELAEGLVRELFPEDVPVTVTVVFYDPETGEELTIPAELASAGGSAGGS [r12_1051_TrMRF] — lower, 1.43 ± 0.044 kcal/mol
- SAGGRGEGTMNDPEGGRVYKSEYDPGDGQAEIEPKPVPPVPPIDAEELAEELEQKNGLPNDDVEDMLGSAGG [r13_824_TrROS] — lower, -0.309 ± 0.27 kcal/mol
- SAGGSAGGPLVVGRGTFPDGFTADAELRVPDSSETFYRTIEPGASLDEIPENYEVANITLSPAGSAGGSAGG [r6_758_TrMRF] — lower, -0.162 ± 0.13 kcal/mol
- SAGGMKITITLTVKNEELLEELKKLAEELGLKVKIEVKYDEETNELTVTVEIELPPPPEEPSEEELKSAGGS [r16_262_TrROS_Hall] — within error, 3.24 ± 0.15 kcal/mol
- SAGGSAGGSMIVKLEDGTYLVRIVNKDTKEVIEIEVSAEEAEELAKELNIEKVEIVKAGEPLESAGGSAGGS [r12_294_TrROS_Hall] — lower, 2.38 ± 0.17 kcal/mol
- SALEEEVKKRAEEIAQEIKEKFPNVKEKVVEIELPLPNGTKLKATVTISRSINEKGIEYKIKIEVSEGLSAG [r14_788_JUSTAS] — within error, 3.68 ± 0.17 kcal/mol
- SAGGSAGGMTLVLEGMSEEELEELARKLRELAEELGLKVKITVERREDGRVRLTVEIELPEELPSAGGSAGG [r6_906_TrROS_Hall] — higher, 4.15 ± 0.25 kcal/mol
- SAGNDEEDQKKAEEQQKPPLEIEPIRVMVMVPFPGGDLLISITIPIIKYPDGGIIIPIPIEIIPLEDISAGG [r19_11_TrROS] — lower, 2.5 ± 0.1 kcal/mol
- SAGGSAGGSKEIVIKVNVSEEDLKEKAEELLKKLEELLPPGAKIKKIEIEYDEETGELVIKIESAGGSAGGS [r12_308_TrROS_Hall] — lower, 2.26 ± 0.18 kcal/mol
- SAGGSAGGSAGGLPPDVRLRVRITRPDGTVLEFDAPADVEIFFPDVPPEWRIEVDAEDVSAGGSAGGSAGGS [r10_774_TrMRF] — lower, 2.09 ± 0.16 kcal/mol
- SAGGSAGGSYYPIEDPNGMKIWVEPDPDNGMYRIRIQFPEGKKVERTFPPGMPLDDIPIKIKDSAGGSAGGS [r12_261_TrROS] — lower, 0.434 ± 0.24 kcal/mol
- SAGGSAGGSADPNAFPITIFTFKMEIEDVEKTPNGQPELRYKMEVVEIRPIWLPPDDLEDLSAGGSAGGSAG [r3_121_TrROS] — higher, 3.79 ± 0.15 kcal/mol
- SAGGTMKYDVEQKYKYPDPDGNPGGEGKHTQEVEVPPPPVIIIPPNDRELAKELAEKFGIPITPDDIASAGG [r19_315_TrROS] — lower, 0.609 ± 0.39 kcal/mol
- SAGGSVTLPDATVVKVPPSQDWQEHADRLAAEIREAGADYEVSVESTPDGSVLITITVPGRTWTMVTSAGGS [r16_771_JUSTAS] — lower, 0.936 ± 0.03 kcal/mol
- SAGGSAGGSAGKPTLKLVLKFDSPEQAKAAAEALAKAGYKVKVELKEYPDGLYLVVTVEPSAGGSAGGSAGG [r11_677_TrROS_Hall] — higher, 4.2 ± 0.2 kcal/mol
- SAGGSAGGSAGMKKVLIIGGPKEELAKELKEKSPDIEVEFLDPSEDLEEYKKKFDIVIIESAGGSAGGSAGG [r17_225_JUSTAS] — lower, 0.0867 ± 0.084 kcal/mol
- SAGGSAGGSPSEEARKKGGLTLTITLRYPDGSTVTITYPVSTPLTIPEEFAKNPPKIESIELSSAGGSAGGS [r12_161_JUSTAS] — lower, 1.34 ± 0.073 kcal/mol
- SAGGSANGKRVEVPITIFFYRRDPEDGKWEPIFPFEIPIRIPVPPGAEVTIEIEFTGNMFRITIEVSAGGSA [r15_537_TrROS] — higher, 4.09 ± 0.13 kcal/mol
- SAGGSAGGSAGGPMPVSVSPIGTKVEKTEEPLVVETTTTLSDAEGPPVTTTTTTVTPPSTSAGGSAGGSAGG [r11_129_JUSTAS] — lower, 1.35 ± 0.13 kcal/mol
- SAMTLTLTVPPGAKVRVRITNENGETTEIEVEPGETVTITLPAGSTVRVEVEVVDPDGRKRTETFTLKPSAG [r14_568_TrROS_Hall] — within error, 3.27 ± 0.15 kcal/mol
